Laboratory results published in the supplement of paper PMC10126150.
± gives the standard deviation of the averaged measurements.

tested on: ATP; assay: switch fluorescence ratio, 500 uM ATP over buffer (Cy3 cluster intensity, sum of 5 cycles each) (fold (ratio)); higher = stronger signal-on switching upon ATP binding; sequences stand for … in TCGTCGGCAGCGTCAGATGTGTATAAGAGACAGTTTTTTTTTTTTTTTTTTTTTTTTT…TC; details: aptamer strand: ATP DNA aptamer (quencher-CACCTGGGGGAGTATTGCGGAGGAAGG + anchor), 100 nM annealed; ATP concentration: 500 uM
Summary of the method: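 Clusters carrying Cy3-labelled switching strands on a modified Illumina MiSeq flow-cell were annealed to 100 nM quencher-labelled ATP aptamer and imaged in selection buffer. They were imaged again after 15 min with 500 uM ATP at 22 °C, over five buffer/ATP cycles with NaOH stripping and re-annealing in between. For each cluster, the fluorescence ratio is the summed Cy3 intensity of the target cycles divided by that of the buffer cycles, averaged per switch-domain sequence. Clusters outside 100-1000 RFU were left out.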
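Also: ATP exposure 15 min at 22 °C before imaging.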

CACTTGGTCG and CACTTTCGT are within error of each other in switch fluorescence ratio: 1 ± 0.068 for the first, 0.959 ± 0.029 for the second.

CACTTTTTGG and CAGAAAAAAT are within error of each other in switch fluorescence ratio: 0.999 ± 0.003 for the first, 0.978 ± 0.038 for the second.

CAGAAGGGGG and CAGAAGGGTT are within error of each other in switch fluorescence ratio: 1.11 ± 0.16 for the first, 0.997 ± 0.038 for the second.

Compared with CAGAATCAAC, CAGAGATCTG is lower in switch fluorescence ratio: 1.05 ± 0.014 for the first, 0.9732 ± 0.0053 for the second.

CAGAGCCAAC and CAGAGCTTTT are within error of each other in switch fluorescence ratio: 1.11 ± 0.016 for the first, 1.05 ± 0.058 for the second.

First: CAGAGGATGC
Second: CAGAGGGGTG
The switch fluorescence ratio of the first is lower: 0.995 ± 0.0041 for the first, 1.05 ± 0.012 for the second.

CAGAGTAACA and CAGAGTGGCA are within error of each other in switch fluorescence ratio: 0.973 ± 0.03 for the first, 1.02 ± 0.027 for the second.

CAGATAGAAG and CAGATAGACG are within error of each other in switch fluorescence ratio: 0.999 ± 0.012 for the first, 1.04 ± 0.036 for the second.

Going from CAGATAGCAG to CAGATATGGC, the switch fluorescence ratio falls from 1.093 ± 0.0021 to 1.05 ± 0.034.

Compared with CAGATCTGTA, CAGATGAGGG is lower in switch fluorescence ratio: 1.0087 ± 0.00071 for the first, 1.005 ± 0.0057 for the second.

CAGATGGACG and CAGATGGGGT are within error of each other in switch fluorescence ratio: 0.968 ± 0.032 for the first, 0.9839 ± 0.001 for the second.

CAGATGGTCG and CAGATGTGTT are within error of each other in switch fluorescence ratio: 0.938 ± 0.057 for the first, 0.9728 ± 0.0031 for the second.

Going from CAGCAAAAAG to CAGCAACATG, the switch fluorescence ratio rises from 0.985 ± 0.025 to 1.04 ± 0.024.

CAGCAGGCGG and CAGCAGGCGT are within error of each other in switch fluorescence ratio: 1.01 ± 0.024 for the first, 1.03 ± 0.021 for the second.

First: CAGCAGGGGC
Second: CAGCATCCTT
The switch fluorescence ratio of the first is higher: 1.11 ± 0.024 for the first, 1.02 ± 0.043 for the second.

First: CAGCATGTTT
Second: CAGCCAAAT
The switch fluorescence ratio of the first is lower: 0.988 ± 0.024 for the first, 1.043 ± 0.01 for the second.

Compared with CAGCCGACCG, CAGCCGGGTG is higher in switch fluorescence ratio: 1.163 ± 0.0088 for the first, 1.3412 ± 0.0003 for the second.

CAGCCTTGTG and CAGCGAGGGG are within error of each other in switch fluorescence ratio: 1.013 ± 0.0079 for the first, 1.21 ± 0.32 for the second.

Going from CAGCGAGTCC to CAGCGAGTGG, the switch fluorescence ratio falls from 1.067 ± 0.0012 to 1 ± 0.036.

CAGCGCTGGA and CAGCGGACCG are within error of each other in switch fluorescence ratio: 0.996 ± 0.033 for the first, 1.02 ± 0.028 for the second.

CAGCGTAGGT and CAGCTACTTG are within error of each other in switch fluorescence ratio: 1.02 ± 0.043 for the first, 1.05 ± 0.025 for the second.

CAGCTAGATA and CAGCTAGCGG are within error of each other in switch fluorescence ratio: 0.9987 ± 0.0065 for the first, 0.97 ± 0.025 for the second.

CAGCTAGGTT and CAGCTAGTCC are within error of each other in switch fluorescence ratio: 1.31 ± 0.39 for the first, 1.176 ± 0.0035 for the second.

CAGCTAGTGT and CAGCTATTTA are within error of each other in switch fluorescence ratio: 0.984 ± 0.028 for the first, 1.02 ± 0.025 for the second.

First: CAGCTTTTCA
Second: CAGGAACGAG
The switch fluorescence ratio of the first is higher: 1.024 ± 0.006 for the first, 1.004 ± 0.0035 for the second.

CAGGAAGCAG and CAGGAATACT are within error of each other in switch fluorescence ratio: 1.05 ± 0.09 for the first, 3.61 ± 3 for the second.

CAGGACGGGG and CAGGACTATT are within error of each other in switch fluorescence ratio: 1.01 ± 0.038 for the first, 0.995 ± 0.021 for the second.

CAGGACTGTT and CAGGACTTAT are the same in switch fluorescence ratio: 1.02 ± 0.011 for the first, 1.02 ± 0.064 for the second.

Going from CAGGAGAGCG to CAGGAGGACT, the switch fluorescence ratio rises from 0.9934 ± 0.0077 to 1.02 ± 0.015.

CAGGAGGATC and CAGGAGGGGG are within error of each other in switch fluorescence ratio: 1.027 ± 0.0074 for the first, 0.992 ± 0.053 for the second.

CAGGAGTCGT and CAGGATATAT are within error of each other in switch fluorescence ratio: 1 ± 0.038 for the first, 1.01 ± 0.027 for the second.

First: CAGGATCTAG
Second: CAGGATGCGT
The switch fluorescence ratio of the first is higher: 1 ± 0.024 for the first, 0.9611 ± 0.0076 for the second.

First: CAGGATTGGC
Second: CAGGCGTGTG
The switch fluorescence ratio of the first is higher: 1.07 ± 0.019 for the first, 0.995 ± 0.011 for the second.

First: CAGGCTACCT
Second: CAGGCTATTG
The switch fluorescence ratio of the first is higher: 1.2 ± 0.092 for the first, 0.988 ± 0.023 for the second.

CAGGGAAAAT and CAGGGAAGG are within error of each other in switch fluorescence ratio: 0.982 ± 0.012 for the first, 0.995 ± 0.016 for the second.

CAGGGACGGG and CAGGGCGC are within error of each other in switch fluorescence ratio: 1.03 ± 0.018 for the first, 1.02 ± 0.088 for the second.

First: CAGGGCGGAA
Second: CAGGGCGGGA
The switch fluorescence ratio of the first is higher: 1.02 ± 0.019 for the first, 0.936 ± 0.028 for the second.

CAGGGCGTGG and CAGGGCGTTC are within error of each other in switch fluorescence ratio: 0.948 ± 0.038 for the first, 0.9856 ± 0.0044 for the second.

CAGGGGAAAG and CAGGGGAATG are within error of each other in switch fluorescence ratio: 1.01 ± 0.033 for the first, 0.994 ± 0.021 for the second.

CAGGGGAGCA and CAGGGGATGC are within error of each other in switch fluorescence ratio: 1.02 ± 0.039 for the first, 0.987 ± 0.067 for the second.

CAGGGGCACG and CAGGGGCTGG are within error of each other in switch fluorescence ratio: 1.06 ± 0.04 for the first, 1.05 ± 0.03 for the second.

CAGGGGGACG and CAGGGGGAGG are within error of each other in switch fluorescence ratio: 0.923 ± 0.063 for the first, 1.03 ± 0.048 for the second.

CAGGGGGCAC and CAGGGGGGCC are within error of each other in switch fluorescence ratio: 1.05 ± 0.042 for the first, 1.03 ± 0.02 for the second.

CAGGGGGTTA and CAGGGGGTTT are within error of each other in switch fluorescence ratio: 1.02 ± 0.026 for the first, 1.01 ± 0.044 for the second.

CAGGGGTGCT and CAGGGTACGG are within error of each other in switch fluorescence ratio: 1.03 ± 0.03 for the first, 1.01 ± 0.052 for the second.

CAGGGTGAAC and CAGGGTGCAT are the same in switch fluorescence ratio: 1.02 ± 0.019 for the first, 1.02 ± 0.051 for the second.

Going from CAGGGTGCTG to CAGGGTGTGC, the switch fluorescence ratio rises from 0.973 ± 0.033 to 1.012 ± 0.00054.

CAGGGTTGAG and CAGGGTTGCC are within error of each other in switch fluorescence ratio: 0.997 ± 0.014 for the first, 0.996 ± 0.018 for the second.

CAGGGTTTTT and CAGGTAAGAG are within error of each other in switch fluorescence ratio: 0.999 ± 0.017 for the first, 0.987 ± 0.013 for the second.

CAGGTACGGG and CAGGTAGTGC are within error of each other in switch fluorescence ratio: 1.02 ± 0.025 for the first, 1.04 ± 0.096 for the second.
